Source: paper PMC10725505, “Molecular forms of BMP15 and GDF9 in mammalian species that differ in litter size” (Scientific Reports, 2023)

Tests used:
[1] = target: recombinant pig GDF9 (pig) (UniProt Q6GUA6); assay: cross-linking; recombinant HEK-293 conditioned media (positive control lanes); 2 mM BS3, room temperature, 30 min; reducing SDS-PAGE; Western blot with Mab61A (BMP15) or Mab37A (GDF9)
[2] = target: native red deer GDF9 (red deer (endogenous in red deer oocytes)); assay: cross-linking; oocyte lysates of sheep, red deer and pig; 2 mM BS3, room temperature, 30 min, reducing SDS-PAGE, beside non-reducing and reducing lanes without cross-linker; Western blot with Mab61A or Mab37A
[3] = target: recombinant pig BMP15 (pig); assay: cross-linking; recombinant HEK-293 conditioned media (positive control lanes); 2 mM BS3, room temperature, 30 min; reducing SDS-PAGE; Western blot with Mab61A (BMP15) or Mab37A (GDF9)
recombinant ovine GDF9 = target: T1, recombinant ovine GDF9 (sheep (ovine), UniProt O77681 319-453); assay: SPR; ProteOn XPR36; biotinylated hBMPR2 captured (~200 RU) on a streptavidin-coated GLC chip; log2 serial dilutions of partially purified (dialysed, concentrated) 293H-secreted GDF9 or BMP15 as analytes; 25 °C, 100 µl/min; 10 mM HEPES, 500 mM NaCl, 3.4 mM EDTA, 0.005% Tween 20; association 120 s; analyte concentrations not known; conditions: one partner purified
T1 construct: also called recovGDF9; sheep GDF9; source: 293H-secreted media, dialysed and concentrated (partially purified)
T1 sequence (looked up): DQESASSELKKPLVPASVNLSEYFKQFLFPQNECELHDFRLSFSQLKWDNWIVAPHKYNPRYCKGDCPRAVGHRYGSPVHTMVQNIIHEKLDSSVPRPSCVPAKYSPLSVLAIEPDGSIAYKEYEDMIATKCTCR

Molecule: recombinant pig GDF9 (from UniProt Q6GUA6 1-444) (ligand)
- stoichiometry N [1]: 2

Molecule: native red deer GDF9 (natural protein)
- stoichiometry N [2]: 2

Molecule: recombinant pig BMP15 (ligand)
- stoichiometry N [3]: 2

B1: recombinant human (h)BMPR2 ectodomain (receptor, UniProt Q13873 27-151, looked up)
chain: SQNQERLCAFKDPYQQDLGIGESRISHENGTILCSKGSTCYGLWEKSKGDINLVKQGCWSHIGDPQECHYEECVVTTTPPSIQNGTYRFCCCSTDLCNVNFTENFPPPDTTPLSPPHSFNRDETI
modifications: N-biotinylated using EZ-Link sulfo-NHS-LC-biotin (1:1.2 molar ratio)
notes: human BMPR2, extracellular domain, amino acids 27 to 151; captured on a streptavidin-coated sensor chip by its biotin; also called hBMPR2 ectodomain protein; Type 2 receptor; source: baculoviral infected Sf9 insect cells, purified
- Kd (recombinant ovine GDF9): ~1 nM
